Experimental data from doi:10.1101/2025.08.03.668247, “The structure of Egalitarian in complex with the K10 mRNA localization signal reveals a modular binding surface required for function”.
Residue numbers refer to the chain shown, from its start.

Legend:
Experiment in all cases: fluorescence anisotropy; FA: 20 mM HEPES-NaOH pH 7.5, 100 mM NaCl, 10% glycerol, 20 C, 10 nM FAM-RNA; competition: 150 nM Egl512-819 + 10 nM FAM-K10 TLS, same buffer
Conditions in all cases: protein: recombinant; tags: N-terminal GST; label: 5'-6-FAM; hairpin with two bulges
R753E = biological target: T1, R753E (Drosophila melanogaster, UniProt Q9W1K4 512-819, R753E)
T1 sequence: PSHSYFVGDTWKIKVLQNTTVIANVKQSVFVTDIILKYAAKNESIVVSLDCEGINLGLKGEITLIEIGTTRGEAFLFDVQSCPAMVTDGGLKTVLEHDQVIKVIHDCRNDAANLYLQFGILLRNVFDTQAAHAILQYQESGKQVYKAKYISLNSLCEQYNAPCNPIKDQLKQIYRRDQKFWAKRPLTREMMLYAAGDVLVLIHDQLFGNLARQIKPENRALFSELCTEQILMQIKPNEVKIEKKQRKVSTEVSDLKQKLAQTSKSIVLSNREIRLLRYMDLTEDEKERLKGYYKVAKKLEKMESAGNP

K758E = biological target: T2, K758E (Drosophila melanogaster, UniProt Q9W1K4 512-819, K758E)
T2 sequence: T1 sequence with E242R, K247E

L-EHD (Egl743-819) = biological target: T3, L-EHD (Egl743-819) (Drosophila melanogaster, UniProt Q9W1K4 743-819)
T3 sequence: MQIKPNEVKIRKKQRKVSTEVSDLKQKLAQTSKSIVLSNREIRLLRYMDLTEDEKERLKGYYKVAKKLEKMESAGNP

K755E = biological target: T4, K755E (Drosophila melanogaster, UniProt Q9W1K4 512-819, K755E)
T4 sequence: T1 sequence with E242R, K244E

K758A = biological target: T5, K758A (Drosophila melanogaster, UniProt Q9W1K4 512-819, K758A)
T5 sequence: T1 sequence with E242R, K247A

R753A/K754A/K755A = biological target: T6, R753A/K754A/K755A (Drosophila melanogaster, UniProt Q9W1K4 512-819, R753A;K754A;K755A)
T6 sequence: T1 sequence with E242A, K243A, K244A

CUUGAUUGUAUUUUUAAAUUAAUUCUUAAAAACUACAAAUUAAG (structured_RNA) [K10 TLS (FAM)]
Kd (R753E): 185 ± 9 nM
Kd (K758E): 380 ± 65 nM
Kd (L-EHD (Egl743-819)): 262 ± 9 nM
Kd (K755E): 133 ± 2 nM
Kd (K758A): 319 ± 19 nM
Kd (R753A/K754A/K755A): 222 ± 19 nM
